# Source: article PMC4595762, “Structural basis of Ornithine Decarboxylase inactivation and accelerated degradation by polyamine sensor Antizyme1” (Scientific Reports, 2015)
# T1: Ornithine decarboxylase (human, UniProt P11926 1-461)
# T1 construct: Ornithine decarboxylase, Homo sapiens, full length; Cloned into pGEX-6p-1; The complex was purified and crystallised with the co-factor PLP (1 mM); One ODC monomer stands in the complex with cAZ1; also called ODC; human ODC; source: E. coli BL21 (DE3), purified (glutathione Sepharose 4B, PreScission cleavage, Superdex-200)
# T1 sequence (looked up): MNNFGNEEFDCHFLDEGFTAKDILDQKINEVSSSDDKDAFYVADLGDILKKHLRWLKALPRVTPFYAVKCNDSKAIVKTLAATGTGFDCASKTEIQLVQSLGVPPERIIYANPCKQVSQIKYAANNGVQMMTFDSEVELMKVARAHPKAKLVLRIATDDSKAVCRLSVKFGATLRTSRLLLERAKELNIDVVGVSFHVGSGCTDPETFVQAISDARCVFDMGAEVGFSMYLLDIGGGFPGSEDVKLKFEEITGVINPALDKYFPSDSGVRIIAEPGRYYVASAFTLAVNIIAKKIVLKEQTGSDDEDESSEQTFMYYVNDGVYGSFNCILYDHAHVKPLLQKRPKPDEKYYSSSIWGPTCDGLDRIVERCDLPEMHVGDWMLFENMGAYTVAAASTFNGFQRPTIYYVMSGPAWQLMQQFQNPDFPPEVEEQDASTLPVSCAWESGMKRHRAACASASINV
# Target: T1, Ornithine decarboxylase
# Test: crystal structure; purified ODC and cAZ1 mixed on ice for 1 hour with cAZ1 in excess; complex purified on Superdex-200 in 20 mM Tris pH 8.5, 150 mM NaCl, 2 mM DTT, 1 mM PLP; hanging-drop crystals at 15 °C; 3.2 Å
# Conditions: both partners purified
binder,measurement,value
"N-terminally truncated Antizyme1 (residues 69-228) (domain or fragment, Antizyme1 (AZ1), Homo sapiens, N-terminally truncated, residues 69-228; Cloned into pGEX-6p-1; also called cAZ1; AZ1; source: E. coli BL21 (DE3), purified (glutathione Sepharose 4B, PreScission cleavage, Superdex-200)) not shown",binding result,binds
